B1: FEM1A (parent)
chain: PCCSSSPEEPLNGESYESCCPTSR

Variants of: B1
Experiment: protein stability index of a GFP-peptide fusion (GPS, HEK-293T) (PSI 1-6); higher = more stable
Details: c terminus: a fixed tail appended
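Further: lentivirally expressed fusions sorted by FACS into six bins by GFP to DsRed ratio, PSI derived from sequencing read proportions per bin multiplied by bin number.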

Variant | protein stability index
PCCSSSPEEPLNNESYESCCPTSR [G13N] | 3.46
PCCSSSPEEPLNRESYESCCPTSR [G13R] | 3.96
PCCSSSPEEPLNHESYESCCPTSR [G13H] | 4.14
PCCSSSPEEPLNVESYESCCPTSR [G13V] | 3.51
PCCSSSPEEPLNKESYESCCPTSR [G13K] | 4.05
PCCSSSPEEILNGESYESCCPTSR [P10I] | 3.6
PCCSSSPEEQLNGESYESCCPTSR [P10Q] | 3.65
PCCSSSPEEMLNGESYESCCPTSR [P10M] | 3.73
PCCSSSPEEYLNGESYESCCPTSR [P10Y] | 3.14
PCCSSSPEEPLNGESYESCMPTSR [C20M] | 3.18
PCCSSSPEEPLNGESYESCHPTSR [C20H] | 3.32
PCCSSSPEEPLNGESYESCLPTSR [C20L] | 3.7
PCCSSSPEEPLNGESYESCFPTSR [C20F] | 2.91
PCCSSSPEEPLNGESYESCTPTSR [C20T] | 3.91
PCCSSSPEEPLNGESYESCAPTSR [C20A] | 3.53
PCCSSSPEEPLNGESYESCRPTSR [C20R] | 4.08
PCCSSSPEEPLNGESYESCGPTSR [C20G] | 3.25
PCCSSSPEEPLNGESYESACPTSR [C19A] | 3.94
PCCSSSPEEPLNGESYESYCPTSR [C19Y] | 3.72
PCCSSSPEEPLNGESYESWCPTSR [C19W] | 1.98
PCCSSSPEEPLNGESYESRCPTSR [C19R] | 3.97

Variant | protein stability index
PCCSSSPEEPLNGESYESTCPTSR [C19T] | 3.56
PCCSSSPEEPLNGESYESNCPTSR [C19N] | 3.67
PCCSSSPEEPLNGESYESSCPTSR [C19S] | 4.11
PCCSSSPEEPLNGESYESFCPTSR [C19F] | 3.76
PCCSSSPEEPLNGESNESCCPTSR [Y16N] | 3.97
PCCSSSPEEPLNGESKESCCPTSR [Y16K] | 3.68
PCCSSSPEEPLNGESTESCCPTSR [Y16T] | 4.37
PCCSSSPEEPLNGESIESCCPTSR [Y16I] | 3.73
PCCSSSPEEPLNGESPESCCPTSR [Y16P] | 4.61
PCCSSSPEEPLNGESCESCCPTSR [Y16C] | 4.27
PCCSSSPEEPLNGESHESCCPTSR [Y16H] | 4.59
PCCSSRPEEPLNGESYESCCPTSR [S6R] | 3.66
PCCSSAPEEPLNGESYESCCPTSR [S6A] | 3.22
PCCSSCPEEPLNGESYESCCPTSR [S6C] | 3.63
PCCSSYPEEPLNGESYESCCPTSR [S6Y] | 2.97
PCCSSSSEEPLNGESYESCCPTSR [P7S] | 3.62
PCCSSSQEEPLNGESYESCCPTSR [P7Q] | 4.44
PCCSSSGEEPLNGESYESCCPTSR [P7G] | 3.38
PCCSSSHEEPLNGESYESCCPTSR [P7H] | 3.37
PCCSSSVEEPLNGESYESCCPTSR [P7V] | 4.45
PCCSSSDEEPLNGESYESCCPTSR [P7D] | 4.65

Variant | protein stability index
PCCSSSKEEPLNGESYESCCPTSR [P7K] | 3.65
PCCSSSCEEPLNGESYESCCPTSR [P7C] | 3.67
PVCSSSPEEPLNGESYESCCPTSR [C2V] | 5.21
PQCSSSPEEPLNGESYESCCPTSR [C2Q] | 4.89
PFCSSSPEEPLNGESYESCCPTSR [C2F] | 4.55
PLCSSSPEEPLNGESYESCCPTSR [C2L] | 4.75
PCCSSSPEVPLNGESYESCCPTSR [E9V] | 3.08
PCCSSSPEYPLNGESYESCCPTSR [E9Y] | 2.77
PCCSSSPEMPLNGESYESCCPTSR [E9M] | 2.69
PCCSSSPEQPLNGESYESCCPTSR [E9Q] | 3.52
PCCSSSPEWPLNGESYESCCPTSR [E9W] | 2.02
PCCSSSPESPLNGESYESCCPTSR [E9S] | 2.88
PCCSSSPEGPLNGESYESCCPTSR [E9G] | 3.67
PCCSSSPEHPLNGESYESCCPTSR [E9H] | 3.67
PCCSSSPEEPLNGESYNSCCPTSR [E17N] | 3.37
PCCSSSPEEPLNGESYGSCCPTSR [E17G] | 3.43
PCCSSSPEEPLNGESYLSCCPTSR [E17L] | 2.37
PCCSSSPEEPLNGESYDSCCPTSR [E17D] | 3.81
PCCSSSPEEPLNGESYKSCCPTSR [E17K] | 3.25
PCCSSSPEEPLNGESYYSCCPTSR [E17Y] | 2.52
PCCSSSPEEPLNGESYMSCCPTSR [E17M] | 3.44

Variant | protein stability index
PCCSSSPEEPLNGESYASCCPTSR [E17A] | 3.04
PCCSSSPEEPLNGRSYESCCPTSR [E14R] | 3.62
PCCSSSPEEPLNGMSYESCCPTSR [E14M] | 2.99
PCCSSSPEEPLNGVSYESCCPTSR [E14V] | 2.8
PCCSSSPEEPLNGFSYESCCPTSR [E14F] | 2.71
PCCSSSPEEPLNGHSYESCCPTSR [E14H] | 3.81
PCCSSSPEEPLNGYSYESCCPTSR [E14Y] | 2.41
PCCSSSPEEPLNGISYESCCPTSR [E14I] | 2.88
PCCSSSPEEPLNGLSYESCCPTSR [E14L] | 3.01
PCCSSSPEEPLNGNSYESCCPTSR [E14N] | 3.66
PCCSSSPEEPLNGDSYESCCPTSR [E14D] | 3.77
PCCSSSPEEPLNGWSYESCCPTSR [E14W] | 2.57
PCCSSSPEEPVNGESYESCCPTSR [L11V] | 4.2
PCCSSSPEEPWNGESYESCCPTSR [L11W] | 2.82
PCCSSSPEEPENGESYESCCPTSR [L11E] | 3.5
PCCSSSPEEPDNGESYESCCPTSR [L11D] | 3.94
PCCSSSPEEPANGESYESCCPTSR [L11A] | 4.52
PCCSSSPEEPNNGESYESCCPTSR [L11N] | 4.57
PCCSSSPEEPRNGESYESCCPTSR [L11R] | 3.93
PCCSSSPEEPCNGESYESCCPTSR [L11C] | 3.54
